Measured values as given in patent publication WO2011161189A1 (dated 2011).

B1: Mab55 (antibody, V domains shown)
VH: QVQLVQSGSELKKPGASVKVSCKASGYTFTDYSMRWVRQAPGQGLEWMGWINTETGSPTYADDFKGRFVFSLDTSVSTAYLQISSLKAEDTAVYYCARGFAYWGQGTLVTVSS
VL: QTVVTQEPSLTVSPGGTVTLTCRSSTGAVTTSNYANWVQQKPGQAFRGLIGDTNNRAPWTPARFSGSLLGGKAALTLSGVQPEDEAEYYCALWYSNHFIFGSGTKVTVL
notes: Humanized variant of Mab 2.7.35, stably expressed in CHO; also called hH35; humanized antibody Mab55
B2: Mab53 (antibody, V domains shown)
VH: QVQLVQSGAEVKKPGASVKVSCKASGYTFTDYSMRWVRQAPGQGLEWMGWINTETGNPAYAQKFQGRVTMTRDTSTSTVYMELSSLRSEDTAVYYCARGFAYWGQGTLVTVSS
VL: QTVVTQEPSLTVSPGGTVTLTCRSSTGAVTTSNYANWVQQKPGQAFRGLIGDTNNRAPWTPARFSGSLLGGKAALTLSGVQPEDEAEYYCALWYSNHFIFGSGTKVTVL
notes: Humanized variant of Mab 2.7.35
B3: Mab 2.7.35 (antibody, V domains shown)
VH: QIQLVQSGPELKKPGETVKISCKASGYTFTDYSMRWVKQAPGKGLKWMGWINTETGNPTYADDFKGRFAFSLETSASTAYLQINNLKNEDTARYFCARGFAYWGQGTLVTVSA
VL: QAVVTQESALTTSPGETVTLTCRSSTGAVTTSNYANWVQEKPDHLFTGLIGDTNNRAPGVPARFSGSLIGDKAALTITGAQTEDEAIYFCALWYSNHFIFGSGTKVTVL
notes: Mouse monoclonal antibody from Balb/c hybridoma; also called mouse Mab 2.7.35; mH35
B4: Mab 2.3.35 (antibody, V domains shown)
VH: QVQLQQSGPELVKPGASVKVSCKASGYTFTDFVINWVKQRTGQGLEWIGEIYPRSNSIYSNEKFKGKATLTTDKSSNTAYMQVSSLTSEDSAVYFCARGSGDYAMDYWGQGTSVTVSS
VL: ENVLTQSPAIMSASPGEKVTMTCSASSSVTYMHWYQQKSSTSPKLWIYDTSKLASGVPGRFSGSGSGNSYSLTIRSMEAEDVATYFCFQGSGFPLTFGGGTKLEIK
notes: also called antibody 2.3.35

Experiments:
[1] = biological target: T1, human hepsin (recombinant EE-tagged, amino acids 45-417, enzymatically active two-chain form) (human, UniProt P05981 45-417); experiment: cell-based or functional assay
T1 sequence (P05981 other isoform, or with tags, fused parts or gaps limits assumed): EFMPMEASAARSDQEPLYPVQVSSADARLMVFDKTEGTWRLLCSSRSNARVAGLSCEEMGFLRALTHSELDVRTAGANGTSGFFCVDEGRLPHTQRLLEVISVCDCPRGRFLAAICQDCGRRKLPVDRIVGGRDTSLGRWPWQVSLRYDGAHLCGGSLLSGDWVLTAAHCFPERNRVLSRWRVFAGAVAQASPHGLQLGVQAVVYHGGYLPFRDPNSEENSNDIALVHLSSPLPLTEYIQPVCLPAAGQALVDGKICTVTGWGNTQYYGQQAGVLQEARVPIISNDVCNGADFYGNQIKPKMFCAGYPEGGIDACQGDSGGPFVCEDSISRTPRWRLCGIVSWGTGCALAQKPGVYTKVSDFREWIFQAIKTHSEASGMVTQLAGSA

[2] = biological target: cynomolgus hepsin (cynomolgus monkey); experiment: cell-based or functional assay
[3] = biological target: T1, human hepsin (recombinant EE-tagged, …); experiment: enzyme kinetics (Ac-KQLR-AMC hydrolysis after preincubation), fit to tight binding inhibitor equations of the mixed type; apparent Ki
[4] = biological target: T1, human hepsin (recombinant EE-tagged, …); experiment: SPR kinetics, antibody captured on CM5 chip, hepsin injected, 298 K
[5] = biological target: T1, human hepsin (recombinant EE-tagged, …); experiment: Biacore (SPR)
[6] = biological target: mouse hepsin (mouse, UniProt O35453 60-436, limits assumed); experiment: cell-based or functional assay
Chain of mouse hepsin (O35453 60-436 limits assumed): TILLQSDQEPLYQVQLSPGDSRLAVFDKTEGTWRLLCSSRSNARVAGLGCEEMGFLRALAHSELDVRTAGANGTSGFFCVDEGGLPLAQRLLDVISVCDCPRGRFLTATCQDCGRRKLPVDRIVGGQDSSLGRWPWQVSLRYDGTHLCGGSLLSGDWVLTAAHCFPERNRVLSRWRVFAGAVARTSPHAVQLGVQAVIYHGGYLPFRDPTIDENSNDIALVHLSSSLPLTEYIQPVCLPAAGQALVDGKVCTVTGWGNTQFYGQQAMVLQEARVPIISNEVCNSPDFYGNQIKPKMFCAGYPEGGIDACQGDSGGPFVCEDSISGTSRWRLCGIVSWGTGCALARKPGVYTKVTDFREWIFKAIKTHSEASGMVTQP

Row | IC 50, human hepsin inhibition assay (FRET peptide substrate) [1] [nM] | inhibition increase compared to the chimeric antibody [1] [fold] | inhibition increase compared to the murine antibody [1] [fold] | IC 50, cynomolgous hepsin assay (FRET peptide substrate) [2] [nM] | Ki [3] [nM] | Kd [4] [nM] | Kd [5] [nM] | IC 50 in enzymatic activity assay of human hepsin [1] [nM] | IC 50 in enzymatic activity assay of murine hepsin [6] [nM] | Binder
1 | 1.02 | 6.7 | 14.7 | 0.99 | 0.39 | 7.1 | – | – | – | B1
2 | – | – | – | – | – | 36 | – | – | – | B2
3 | – | – | – | – | – | 31.5 | 4 | 14 | > 200 | B3
4 | – | – | – | – | – | – | 22 | 7 | – | B4
